Experimental data reported in the Human Domainome abundance scans (Beltran et al. 2025).
± gives the uncertainty stated by the source.

B1: Nuclear receptor subfamily 1 group D member 2, residues 103 to 171; numbered along this chain, Q14995 (parent)
chain: CKVCGDVASGFHYGVHACEGCKGFFRRSIQQNIQYKKCLKNENCSIMRMNRNRCQQCRFKKCLSVGMSR

Variants of: B1
Experiment: abundance fitness (aPCA) (normalised: wild type 0, dead -1); higher = more abundant; growth selection in yeast, the domain comes from the species named
Conditions: Homo sapiens

Variant | abundance fitness
CKVCGDVASGFHYGVHACEGCKGFFRRSIQQNIQYAKCLKNENCSIMRMNRNRCQQCRFKKCLSVGMSR [K36A] | -0.172 ± 0.12
CKVCGDVASGFHYGVHACEGCKGFFRRSIQQNIQYMKCLKNENCSIMRMNRNRCQQCRFKKCLSVGMSR [K36M] | -0.267 ± 0.24
CKVCGDVASGFHYGVHACEGCKGFFRRSIQQNIQYGKCLKNENCSIMRMNRNRCQQCRFKKCLSVGMSR [K36G] | 0.092 ± 0.11
CKVCGDVASGFHYGVHACEGCKGFFRRSIQQNIQYPKCLKNENCSIMRMNRNRCQQCRFKKCLSVGMSR [K36P] | -0.199 ± 0.16
CKVCGDVASGFHYGVHACEGCKGFFRRSIQQNIQYQKCLKNENCSIMRMNRNRCQQCRFKKCLSVGMSR [K36Q] | -0.305 ± 0.27
CKVCGDVASGFHYGVHACEGCKGFFRRSIQQNIQYVKCLKNENCSIMRMNRNRCQQCRFKKCLSVGMSR [K36V] | -0.26 ± 0.12
CKVCGDVASGFHYGVHACEGCKGFFRRSIQQNIQYLKCLKNENCSIMRMNRNRCQQCRFKKCLSVGMSR [K36L] | -0.459 ± 0.17
CKVCGDVASGFHYGVHACEGCKGFFRRSIQQNIQYDKCLKNENCSIMRMNRNRCQQCRFKKCLSVGMSR [K36D] | -0.439 ± 0.31
CKVCGDVASGFHYGVHACEGCKGFFRRSIQQNIQYSKCLKNENCSIMRMNRNRCQQCRFKKCLSVGMSR [K36S] | 0.137 ± 0.18
CKVCGDVASGFHYGVHACEGCKGFFRRSIQQNIQYWKCLKNENCSIMRMNRNRCQQCRFKKCLSVGMSR [K36W] | -0.33 ± 0.2
CKVCGDVASGFHYGVHACEGCKGFFRRSIQQNIQYTKCLKNENCSIMRMNRNRCQQCRFKKCLSVGMSR [K36T] | -0.292 ± 0.2
CKVCGDVASGFHYGVHACEGCKGFFRRSIQQNIQYIKCLKNENCSIMRMNRNRCQQCRFKKCLSVGMSR [K36I] | -0.509 ± 0.48
CKVCGDVASGFHYGVHACEGCKGFFRRSIQQNIQYEKCLKNENCSIMRMNRNRCQQCRFKKCLSVGMSR [K36E] | 0.219 ± 0.35
CKVCGDVASGFHYGVHACEGCKGFFRRSIQQNIQYKKCLFNENCSIMRMNRNRCQQCRFKKCLSVGMSR [K40F] | 0.09 ± 0.11
CKVCGDVASGFHYGVHACEGCKGFFRRSIQQNIQYKKCLCNENCSIMRMNRNRCQQCRFKKCLSVGMSR [K40C] | -0.615 ± 0.19
CKVCGDVASGFHYGVHACEGCKGFFRRSIQQNIQYKKCLANENCSIMRMNRNRCQQCRFKKCLSVGMSR [K40A] | 0.106 ± 0.056
CKVCGDVASGFHYGVHACEGCKGFFRRSIQQNIQYKKCLDNENCSIMRMNRNRCQQCRFKKCLSVGMSR [K40D] | 0.115 ± 0.09
CKVCGDVASGFHYGVHACEGCKGFFRRSIQQNIQYKKCLGNENCSIMRMNRNRCQQCRFKKCLSVGMSR [K40G] | 0.202 ± 0.042
CKVCGDVASGFHYGVHACEGCKGFFRRSIQQNLQYKKCLKNENCSIMRMNRNRCQQCRFKKCLSVGMSR [I33L] | -0.065 ± 0.049
CKVCGDVASGFHYGVHACEGCKGFFRRSIQQNVQYKKCLKNENCSIMRMNRNRCQQCRFKKCLSVGMSR [I33V] | -0.213 ± 0.048

Variant | abundance fitness
CKVCGDVASGFHYGVHACEGCKGFFRRSIQQNFQYKKCLKNENCSIMRMNRNRCQQCRFKKCLSVGMSR [I33F] | -0.38 ± 0.082
CKVCGDVASGFHYGVHACEGCKGFFRRSIQQNMQYKKCLKNENCSIMRMNRNRCQQCRFKKCLSVGMSR [I33M] | -0.35 ± 0.077
CKVCGDVASGFHYGVHACEGCKGFFRRSIQQNQQYKKCLKNENCSIMRMNRNRCQQCRFKKCLSVGMSR [I33Q] | -0.553 ± 0.11
CKVCGDVASGFHYGVHACEGCKGFFRRSIQQNGQYKKCLKNENCSIMRMNRNRCQQCRFKKCLSVGMSR [I33G] | -0.338 ± 0.053
CKVCGDVASGFHYGVHACEGCKGFFRRSIQQNPQYKKCLKNENCSIMRMNRNRCQQCRFKKCLSVGMSR [I33P] | -0.672 ± 0.12
CKVCGDVASGFHYGVHACEGCKGFFRRSIQQNRQYKKCLKNENCSIMRMNRNRCQQCRFKKCLSVGMSR [I33R] | -0.531 ± 0.058
CKVCGDVASGFHYGVHACEGCKGFFRRSIQQNSQYKKCLKNENCSIMRMNRNRCQQCRFKKCLSVGMSR [I33S] | -0.527 ± 0.071
CKVCGDVASGFHYGVHACEGCKGFFRRSIQQNHQYKKCLKNENCSIMRMNRNRCQQCRFKKCLSVGMSR [I33H] | -0.493 ± 0.14
CKVCGDVASGFHYGVHACEGCKGFFRRSIQQNWQYKKCLKNENCSIMRMNRNRCQQCRFKKCLSVGMSR [I33W] | -0.668 ± 0.12
CKVCGDVASGFHYGVHACEGCKGFFRRSIQQNYQYKKCLKNENCSIMRMNRNRCQQCRFKKCLSVGMSR [I33Y] | -0.181 ± 0.12
CKVCGDVASGFHYGVHACEGCKGFFRRSIQQNEQYKKCLKNENCSIMRMNRNRCQQCRFKKCLSVGMSR [I33E] | -0.424 ± 0.089
CKVCGDVASGFHYGVHACEGCKGFFRRSIQQNIQYKKFLKNENCSIMRMNRNRCQQCRFKKCLSVGMSR [C38F] | -0.864 ± 0.28
CKVCGDVASGFHYGVHACEGCKGFFRRSIQQNIQYKKVLKNENCSIMRMNRNRCQQCRFKKCLSVGMSR [C38V] | -0.551 ± 0.11
CKVCGDVASGFHYGVHACEGCKGFFRRSIQQNIQYKKRLKNENCSIMRMNRNRCQQCRFKKCLSVGMSR [C38R] | -0.842 ± 0.14
CKVCGDVASGFHYGVHACEGCKGFFRRSIQQNIQYKKDLKNENCSIMRMNRNRCQQCRFKKCLSVGMSR [C38D] | -0.894 ± 0.31
CKVCGDVASGFHYGVHACEGCKGFFRRSIQQNIQYKKWLKNENCSIMRMNRNRCQQCRFKKCLSVGMSR [C38W] | -0.521 ± 0.13
CKVCGDVASGFHYGVHACEGCKGFFRRSIQQNIQYKKGLKNENCSIMRMNRNRCQQCRFKKCLSVGMSR [C38G] | -0.836 ± 0.14
CKVCGDVASGFHYGVHACEGCKGFFRRSIQQNIQYKKLLKNENCSIMRMNRNRCQQCRFKKCLSVGMSR [C38L] | -1.01 ± 0.22
CKVCGDVASGFHYGVHACEGCKGFFRRSIQQNIQYKKQLKNENCSIMRMNRNRCQQCRFKKCLSVGMSR [C38Q] | -0.803 ± 0.45
